Assay results reported in patent publication US9266964.
Where a chain is given by its changes, count along the chain named.

B1: M27-H10 (Fab, V domains shown)
VH: EVQLLESGGGLVQPGGSLRLSCAASGFTFSAYQMAWVRQAPGKGLEWVSVIYSSGGYTDYADSVKGRFTISRDNSKNTLYLQMNSLRAEDTAVYYCARHNWNDGAFDIWGQGTMVTVSS
VL: DIQMTQSPSSLSASVGDRVTITCRASQSISNYLNWYQQKPGKAPKFLIYAASSLQSGVPSRFSGSGSGTDFTLSISSLQPEDFATYYCQQSYSTPQTFGQGTKVEMK
notes: Fab fragment (E. coli TG1); printed HC runs into the start of CH1
B2: M12-A08 (Fab, V domains shown)
VH: EVQLLESGGGLVQPGGSLRLSCAASGFTFSWYYMGWVRQAPGKGLEWVSWIVSSGGLTLYADSVKGRFTISRDNSKNTLYLQMNSLRAEDTAMYYCARTTVTTGDAFDIWGQGTMVTVSS
VL: DIQMTQSPSSLSASVGDRVTITCRASQSISRYLNWYQQKPGKAPKLLIYAASTLETGVPSRFSGSGSGTDFTLTITTLQPEDFVIYYCQQSYSTPYTFGQGTKLEIK
notes: as for B1
B3: M27-G01 (Fab, V domains shown)
VH: EVQLLESGGGLVQPGGSLRLSCAASGFTFSLYRMFWVRQAPGKGLEWVSSIWSSGGPTMYADSVKGRFTISRDNSKNTLYLQMNSLRAEDTAVYYCAREYPSTYYFDYWGQGTLVTVSS
VL: B2 VL with R31T, A50G, T53S, E55Q, T56S, T76S, T77S, V84T, T94D, E105D
notes: as for B1
B4: M12-C10 (Fab, V domains shown)
VH: EVQLLESGGGLVQPGGSLRLSCAASGFTFSDYEMHWVRQAPGKGLEWVSGISPSGGKTQYADSVKGRFTISRDNSKNTLYLQMNSLRAEDTAVYYCARDLKWGGRGSPDWYFDLWGRGTLVTVSS
VL: QSALTQPPSVSVSPGQTASITCSGDKLGEKYVSWYQQKPGQSPVVVIYQDNKRPSGIPERFSGSNSGNTATLTISGTQAVDEADYYCQAWDSYTVVFGGGSKLTVLG
notes: Fab fragment (E. coli TG1); printed HC runs into the start of CH1 and printed LC into the start of the lambda constant region (GQPK)
B5: M27-B12 (Fab, V domains shown)
VH: EVQLLESGGGLVQPGGSLRLSCAASGFTFSWYQMMWVRQAPGKGLEWVSSISPSGGITEYADSVKGRFTISRDNSKNTLYLQMNSLRAEDTAVYYCARDRSSGWYYYGMDVWGQGTTVTVSS
VL: QYELTQPPAVSVSPGQTATITCSGDKLGDEYAAWYQQKPGQSPVLVIYQDRKRPSGIPERFSGSNFGNTATLTITGTQVMDEADYYCQAWGKRNVVFGGGTKLTVL
notes: as for B1
B6: M11-G09 (Fab, V domains shown)
VH: EVQLLESGGGLVQPGGSLRLSCAASGFTFSLYNMTWVRQAPGKGLEWVSYIYPSGGGTHYADSVKGRFTISRDNSKNTLYLQMNSLRAEDTAVYYCARDTGFWSADAFDIWGQGTMVTVSS
VL: DIQMTQSPSSLSASVGDRVTITCRTSQGINHYLNWYQQKPGKAPKILVFAASELQTGVPSRFSGTGSGTSYTLTITSLQPEDVATYYCQQTYTSPYTFGQGTKLEVK
notes: as for B1
B7: M12-D10 (Fab, V domains shown)
VH: EVQLLESGGGLVQPGGSLRLSCAASGFTFSNYPMDWVRQAPGKGLEWVSSISSSGGWTNYADSVKGRFTISRDNSKNTLYLQMNSLRAEDTAVYYCATDTSGSYLGFDYWGQGTLVTVSS
VL: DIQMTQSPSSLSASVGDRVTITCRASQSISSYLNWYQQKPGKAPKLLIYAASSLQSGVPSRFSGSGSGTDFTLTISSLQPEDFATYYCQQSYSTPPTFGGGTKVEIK
notes: as for B1
B8: M12-B04 (Fab, V domains shown)
VH: EVQLLESGGGLVQPGGSLRLSCAASGFTFSLYSMYWVRQAPGKGLEWVSRIRPSGGGTVYADSVKGRFTISRDNSKNTLYLQMNSLRAEDTAVYYCARDPLYSSGDVWGQGTTVTVSS
VL: DIQMTQSPSSLSASVGDRVTITCRASQGIRNDLGWYQHKPGKAPKLLIYAASILQSGVPSRFSGTASGTDFTLTISSLQPEDFATYFCLQDYEYPLTFGGGTKLDIK
notes: as for B1
B9: M27-F04 (Fab, V domains shown)
VH: EVQLLESGGGLVQPGGSLRLSCAASGFTFSWYPMTWVRQAPGKGLEWVSSIGPSGGQTIYADSVKGRFTISRDNSKNTLYLQMNSLRAEDTAVYYCTTEYGDYGGGFDPWGQGTLVTVSS
VL: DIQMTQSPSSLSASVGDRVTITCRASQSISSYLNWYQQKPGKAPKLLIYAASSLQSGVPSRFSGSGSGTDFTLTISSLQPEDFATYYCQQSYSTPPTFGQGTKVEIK
notes: as for B1
B10: M11-E06 (Fab, V domains shown)
VH: EVQLLESGGGLVQPGGSLRLSCAASGFTFSQYAMHWVRQAPGKGLEWVSSIYPSGGFTLYADSVKGRFTISRDNSKNTLYLQMNSLRAEDTAMYYCARGGWLAGGELLNWGQGTLVTVSS
VL: DIQMTQSPSSLSASIGDRVTISCRASRGIGTYLNWYQQHAGKAPKLLIRAASSLETGVPPRFSGSGSGTDFTLTISSLQSDDFATYYCQESFTNVYNFGQGTKLEIK
notes: as for B1
B11: M12-E06 (Fab, V domains shown)
VH: EVQLLESGGGLVQPGGSLRLSCAASGFTFSQYKMLWVRQAPGKGLEWVSGIGPSGGLTAYADSVKGRFTISRDNSKNTLYLQMNSLRAEDTAVYYCARAPWFGELGMDVWGQGTTVTVSS
VL: DIQMTQSPSSLSASVGDRVSITCRASQSISTYLNWYQHKPGKAPTLLIYGAFSLQSGVPSRFSGSGSGTDFALTISSLQPEDFATYYCQQSHSTPPTFGQGTRVEIK
notes: as for B1
B12: M27-F11 (Fab, V domains shown)
VH: EVQLLESGGGLVQPGGSLRLSCAASGFTFSSYHMMWVRQAPGKGLEWVSSIYPSGGATMYADSVKGRFTISRDNSKNTLYLQMNSLRAEDTAMYYCARDGYHYGDYTYFQHWGQGTLVTVSS
VL: DIQMTQSPSFLSASVGDRVTITCRASQGISSYLAWYQQKPGKAPKLLIYAASSLQSGVPSRFSGSGSGTDFTLTISSLQPEDFATYYCQQSYNTLRTFGPGTKVDLK
notes: as for B1
B13: M27-G09 (Fab, V domains shown)
VH: EVQLLESGGGLVQPGGSLRLSCAASGFTFSEYDMAWVRQAPGKGLEWVSYIVSSGGFTSYADSVKGRFTISRDNSKNTLYLQMNSLRAEDTAVYYCTTWAGWIAAADYWGQGTLVTVSS
VL: DIQMTQSPSSVSASVGDRITITCRTRQSISNYLNWYQQKPGEPPKLLIFAASSLQSGVPSRFSGSGTGTEFTLTISSLQPEDLAIYYCQQSYDIPFTFGQGTKLEIK
notes: as for B1
B14: M27-G04 (Fab, V domains shown)
VH: EVQLLESGGGLVQPGGSLRLSCAASGFTFSAYYMVWVRQAPGKGLEWVSYISPSGGQTQYADSVKGRFTISRDNSKNTLYLQMNSLRAEDTAVYYCAREAISSSSFDYWGQGTLVTVSS
VL: DIQMTQSPSSLSASVGDRVTITCRASQRISYYLTWYQQKPGKVPKLLIYAASSLESGVPSRFSGSGSGTDFTLTISNLQPEDFATYYCQQAFSTPFTFGGGTKVEIK
notes: as for B1
B15: M27-A10 (Fab, V domains shown)
VH: EVQLLESGGGLVQPGGSLRLSCAASGFTFSWYRMDWVRQAPGKGLEWVSSIWPSGGLTSYADSVKGRFTISRDNSKNTLYLQMNSLRAEDTAVYYCARGWAPGGDAFDIWGQGTMVTVSS
VL: DIQMTQSPSSLSASVGDRVTITCRASQSISAYLNWYQQKPGKAPQLLMYGVGSLQSGVPSRFSGSGSGTDFTLTISSLQPEDFATYFCQQGYTTPVTFGGGTKVEIK
notes: as for B1
B16: M28-D12 (Fab, V domains shown)
VH: EVQLLESGGGLVQPGGSLRLSCAASGFTFSWYTMHWVRQAPGKGLEWVSVIYPSGGPTSYADSVKGRFTISRDNSKNTLYLQMNSLRAEDTATYYCARDGSGSYLGFDYWGQGTLVTVSS
VL: DIQMTQSPSSLSASVGDRVTITCRASQSIATYLNWYQQKPGRAPKLLIYAASSLQSGVPSRFVGGGSGSGTHFTLTISSLQPEDFATYYCQQSYSTRETFGQGTKVEIK
notes: as for B1
B17: M27-E03 (Fab, V domains shown)
VH: EVQLLESGGGLVQPGGSLRLSCAASGFTFSSYMMHWVRQAPGKGLEWVSGIYPSGGWTDYADSVKGRFTISRDNSKNTLYLQMNSLRAEDTATYYCARLVAGLDAFDIWGQGTMVTVSS
VL: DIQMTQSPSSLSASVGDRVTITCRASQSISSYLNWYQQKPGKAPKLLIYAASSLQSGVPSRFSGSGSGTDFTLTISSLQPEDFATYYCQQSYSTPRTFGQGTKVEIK
notes: as for B1
B18: M28-C03 (Fab, V domains shown)
VH: EVQLLESGGGLVQPGGSLRLSCAASGFTFSYYQMGWVRQAPGKGLEWVSSIYPSGGMTDYADSVKGRFTISRDNSKNTLYLQMNSLRAEDTAVYYCTRGSPWGDDAFDIWGQGTMVTVSS
VL: DIQMTQSPSSLSASVGDRVTITCRASQSINFYLNWYQQKPGKAPKLLIYVASSLESGVPSRFSGSASGTEFTLTISSLQPEDFATYYCLQSYSAPYTFGQGTKVEIT
notes: as for B1
B19: M28-A01 (Fab, V domains shown)
VH: EVQLLESGGGLVQPGGSLRLSCAASGFTFSWYAMHWVRQAPGKGLEWVSGIYSSGGYTKYADSVKGRFTISRDNSKNTLYLQMNSLRAEDTAVYYCARDLSNGDDVFDIWGQGTMVTVSS
VL: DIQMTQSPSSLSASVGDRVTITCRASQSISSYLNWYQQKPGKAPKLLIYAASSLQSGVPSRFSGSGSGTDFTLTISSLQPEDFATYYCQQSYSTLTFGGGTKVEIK
notes: as for B1
B20: M12-C09 (Fab, V domains shown)
VH: EVQLLESGGGLVQPGGSLRLSCAASGFTFSSYAMVWVRQAPGKGLEWVSSIGSSGGFTLYADSVKGRFTISRDNSKNTLYLQMNSLRAEDTAVYYCASMNLGGGDAFDIWGQGTMVTVSS
VL: DIQMTQSPSSLSASVGDRVTITCRASQSIGIYLNWYHQKPGKAPNLLIYGASSLQSGVPSRFSGSGSGTDFTLTISSLQPGDFATYYCQHSYSTPFTFGGGTKVEIK
notes: Fab fragment (E. coli TG1); printed HC runs into the start of CH1; tied to M12-C09 by its CDRs; also called M12-009
B21: M27-B01 (Fab, V domains shown)
VH: EVQLLESGGGLVQPGGSLRLSCAASGFTFSDYTMWWVRQAPGKGLEWVSSISSSGGITFYADSVKGRFTISRDNSKNTLYLQMNSLRAEDTAVYYCARSADTAMGGAFDIWGQGTMVTVSS
VL: not shown
notes: as for B1
B22: M28-D02 (Fab, V domains shown)
VH: EVQLLESGGGLVQPGGSLRLSCAASGFTFSWYPMQWVRQAPGKGLEWVSYIYPSGGGTDYADSVKGRFTISRDNSKNTLYLQMNSLRAEDTATYYCATSSGWLGDAFDIWGQGTMVTVSS
VL: DIQMTQSPSSLSASEGDMVTITCRTSRRIGTYLNWYQQKPGKAPKLLIYGASSLQSGVPSRFSGSGSGTDFTLTVSSLQPEDVGTYYCQQSFSSPWTFGPGTKVEIK
notes: Fab fragment (E. coli TG1); printed HC runs into the start of CH1; The LC is printed with an amber codon 'q' (QDIqMTQ), written here as Q
B23: M11-G12 (Fab, V domains shown)
VH: EVQLLESGGGLVQPGGSLRLSCAASGFTFSQYPMNWVRQAPGKGLEWVSSISSSGGFTTYADSVKGRFTISRDNSKNTLYLQMNSLRAEDTAVYYCAREEQQGGFDYWGQGTLVTVSS
VL: DIQMTQSPSSLSAFVGDRVSITCRASQTISVYVNWYQHKSGQAPKLLIYGASSLQSGVPSRFSGSGSGTDFTLTISSLQPEDFATYFCQQSYSIPFTFGGGTDVQIR
notes: as for B1

Biological target: T1, human plasma kallikrein (human, UniProt P03952 20-390; P03952 391-638)
T1 construct: two disulfide-linked chains; also called pKal; human pKal
Test: ELISA; signal on coated biotinylated human plasma kallikrein divided by signal on streptavidin; Fab
Text: Abbreviations used: "T/B" is the ELISA signal obtained using of the target (biotinylated plasma kallikrein) divided by the ELISA signal of the "background" (streptavidin); both of which were coated on microtiter plates. "nd" is not determined. The symbol "q" refers to the amber suppressible stop codon (TAG), which is translated as glutamine (Q) in strains of E. coli such as the TG1 cells that were used to express the Fab fragments.

T1 sequence (P03952 20-390, chain 1 of 2): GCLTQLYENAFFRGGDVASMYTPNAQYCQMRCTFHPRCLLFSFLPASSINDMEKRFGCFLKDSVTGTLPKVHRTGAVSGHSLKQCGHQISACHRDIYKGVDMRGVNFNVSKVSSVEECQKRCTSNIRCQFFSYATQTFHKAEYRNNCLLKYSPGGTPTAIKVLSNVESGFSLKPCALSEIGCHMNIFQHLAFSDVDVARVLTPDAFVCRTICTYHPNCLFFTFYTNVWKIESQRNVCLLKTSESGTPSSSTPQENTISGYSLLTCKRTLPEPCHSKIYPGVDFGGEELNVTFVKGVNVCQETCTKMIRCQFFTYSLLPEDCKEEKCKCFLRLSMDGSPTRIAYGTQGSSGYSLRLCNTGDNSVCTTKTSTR
T1 sequence (P03952 391-638, chain 2 of 2): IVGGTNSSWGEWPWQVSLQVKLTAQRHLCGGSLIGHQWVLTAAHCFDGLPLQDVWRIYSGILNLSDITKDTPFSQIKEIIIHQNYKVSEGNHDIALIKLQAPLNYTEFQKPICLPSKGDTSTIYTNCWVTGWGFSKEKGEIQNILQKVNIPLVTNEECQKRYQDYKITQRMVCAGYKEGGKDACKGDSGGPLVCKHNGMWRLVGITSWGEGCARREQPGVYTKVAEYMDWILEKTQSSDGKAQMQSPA

Row | Binder | Human pKal ELISA (T/B)
1 | B1 | 12.4 T/B (target signal / background signal)
2 | B2 | 40.4 T/B (target signal / background signal)
3 | B3 | 31.4 T/B (target signal / background signal)
4 | B4 | 8.3 T/B (target signal / background signal)
5 | B5 | 2.3 T/B (target signal / background signal)
6 | B6 | 23.6 T/B (target signal / background signal)
7 | B7 | 9.9 T/B (target signal / background signal)
8 | B8 | 18 T/B (target signal / background signal)
9 | B9 | 10.5 T/B (target signal / background signal)
10 | B10 | 12.6 T/B (target signal / background signal)
11 | B11 | 48 T/B (target signal / background signal)
12 | B12 | 10 T/B (target signal / background signal)
13 | B13 | 2.2 T/B (target signal / background signal)
14 | B14 | 4.1 T/B (target signal / background signal)
15 | B15 | 3.2 T/B (target signal / background signal)
16 | B16 | 41.6 T/B (target signal / background signal)
17 | B17 | 35.9 T/B (target signal / background signal)
18 | B18 | 2.2 T/B (target signal / background signal)
19 | B19 | 19 T/B (target signal / background signal)
20 | B20 | 7 T/B (target signal / background signal)
21 | B21 | 33.1 T/B (target signal / background signal)
22 | B22 | 3.7 T/B (target signal / background signal)
23 | B23 | 4.9 T/B (target signal / background signal)
